Measurements: patent US9175027B2, “Polymer-carbohydrate-lipid conjugates” (priority 2011, dated 2015)
Ends that are not written are not given here.

Legend:
[1] = Stability of peptide solution by HPLC assay; assay type: physicochemical; details: 24 hours
Procedure: Stability experiment was carried out by HPLC assay and a custom synthesized thermolabile peptide with the following sequence was used as the model compound: […] The peptide was added to selected media and sonicated for 10 minutes. The sample solutions were filtered through passed through 0.22-μm pore-size filter to remove dust particles before the HPLC assay. A Simadzu 10avp chromatography system with a Kinetex C18 (2.6 μm, 100×4.6 mm i.d.) column (Phenomenex, Torrance, Calif.) were used. The solutions were kept at 25° C. in the Autosampler during the assay and the mobile phase consisted of 0.1% of trifluoroacetic acid and acetonitrile mixture (v/v, 80/20) with a flow rate of 1.0 mL/min. The peptide peak was monitored at 210 nm and quantitated using external standard sets of the peptide.
The plots were the % recovery vs. time.

[2] = Body weight change as evidence of cisplatin renal toxicity; assay type: in vivo, mice (B6D2F1); details: mice, compared with free sugars
Procedure: Groups of four each of mixed gender mice (B6D2F1), […] and weights of 22 to 30 grams) were studied in duplicate. Each mouse was administrated cisplatin intravenously at a dose of 10 mg/kg (Table 15) and Intraperitoneally at a dose of 15 mg/kg (Table 16). The changes in body weights observed can be used as a direct evident in the renal toxicity effects.

[3] = Physical state of Propofol formulation with PEG-carbohydrate-lipid (solution vs suspension/microemulsion); assay type: physicochemical
Procedure: A propofol solution suitable for intravenous delivery is prepared as follows. 5% (w/v) of OAPDL-PEG in Saline was added to a vessel equipped with a mixer propeller and 2% (w/v) of Propofol was added with constant mixing at ambient room temperature. Mixing was continued until the drug was visually dispersed. Equal volume of Saline was added to the vessel with adequate mixing. Mixing continued for another 30 minutes or until a homogenous solution was achieved. A sample formulation is described in Table 14.
In Example 16, less concentrated or less purified PEG-sugar-lipid will create a suspension instead of an aqueous solution. For instance, the final concentration of the PEG-carbohydrate-lipid is less than 1.5% (w/v), it will form a suspension. Similarly when the oligomer purity is 80% or less, regardless the concentration of the PEG-carbohydrate-lipid, an emulsified solution will be observed instead of a transparent solution.
Propofol as the active agent was formulated with various polymer-lipid-carbohydrate conjugates described in the present invention. At a lower of the polymer-lipid-carbohydrate conjugate concentration, i.e., OAPDL-11 (<1.5%), the formulation is a microemulsion and at a higher OAPDL-11 concentration (≧2.2%), it is a true solution.
A solution is defined as a homogenous mixture of substances with variable composition. […]

| Substance | peptide degradation ([1]; in a 50 mM of phosphate buffer) | peptide still remaining ([1]; in a 2% of PEG-carbohydrate-lipid) | intravenous hydration effect for reducing renal toxicity of cisplatin [2] | state of Propofol formulation ([3]; OAPDL-11 concentration <1.5%) | state of Propofol formulation ([3]; OAPDL-11 concentration ≧2.2%) |
| --- | --- | --- | --- | --- | --- |
| FPKLSHGCNKHSRKHPYMTF [peptide, custom synthesized thermolabile peptide used as the model compound] | degraded significantly | more than 97% | – | – | – |
| oleoyl-N-(3-aminopropyl)propane-1,3-diamine-Undecaethylene glycol methyl ether Lactobionate [OAPDL-11] | – | – | better than free sugars | microemulsion | true solution |
